Measured values published in paper PMC12328635.

T1: SC35 (GST-SC35) (Populus tomentosa, UniProt A0AAD6QWB7 1-302)
T1 sequence: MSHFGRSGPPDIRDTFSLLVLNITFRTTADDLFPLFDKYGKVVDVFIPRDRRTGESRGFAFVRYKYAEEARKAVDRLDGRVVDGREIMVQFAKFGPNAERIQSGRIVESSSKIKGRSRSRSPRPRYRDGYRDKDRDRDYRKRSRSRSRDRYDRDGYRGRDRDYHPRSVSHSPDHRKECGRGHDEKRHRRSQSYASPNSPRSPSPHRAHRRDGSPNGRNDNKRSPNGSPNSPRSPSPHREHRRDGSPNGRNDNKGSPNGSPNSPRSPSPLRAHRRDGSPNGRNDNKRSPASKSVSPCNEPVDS


Molecular target: T1, SC35 (GST-SC35)
Assay: EMSA

Binder | binding result
CAUUAUGUUGAGGAAUUAGAAGAUAAGGUG (ssRNA) [Probe1] | binds
UUAGAGAGAGUGGAAUUAGUGGGUUUGGUU (ssRNA) [Probe2] | binds
UUAGAGAGAGUCCUUAAUCUGGGUUUGGUU (ssRNA) [Mutation-Probe2] | no binding
CAUUAUGUUGACCUUAAUCAAGAUAAGGUG (ssRNA) [Mutation-Probe1] | no binding
